Results taken from patent US20250327097A1, “ORGANISMS PRODUCING LESS CROTONIC ACID” (Global Bioenergies, priority 2021, published 2025).
Where a chain is given by its changes, count along the chain named. Numbers in names are those of the source.

B1: I283T-P284D-i284aP-E286S-N287P-S322T-N388M-E421V-C430N-L432F-L434W-S436N-H461T-dG462-A463T (protein)
chain: MFLKSLREQINLLKRQGDLRIINRPVDSYLEAAAIIRRSTETKAPVPLMTNIKGYPGCSIVGGLAALSSNPEYPLSRVAMSLGLSTTASAQSIVQYLIDGLKKTPYLPVEIDSNSAPCKQNILRGEDASLAHFPIPQVHQHDGNRYVNTWGVFIVESPDGQWCNWSIQRVQYLNDRQMIALVFPSQHISDIWEEWVKIGKPMPYALVQGCEPIVPYIAGLPLLERNVNEAEYIGALYGKGIEVVKCETHDLRVPASSEVVIEGYFAITREGVEGPFGEFAGYTDNSPSLQPILSITAISWQDDPIWPVVAEGKPVDEYHTCTGIGDAAAIQNVLLTANLPVSFVWVPLYSACHLMIVSINRHWRQTHPDLTSEQLTKKVGDVIHQTRMSIKLPKIVVLDDDVDPADTESLLWALATRIHPVRKRYFYESNIFPWLNCYSEEERHNRKGKRVIIDALLPENTGTISSFDYAYPDDIKQRVLMHWETDFSHD
B2: I283T-P284D-i284aP-N287P-S322T-N388M-E421V-C430N-L432F-L434W-S436N-C437F-G448E-H461T-dG462-A463T (protein)
chain: B1 chain with S286E, C437F, G448E
B3: I283T-P284D-i284aP-N287P-S322T-N388M-E421V-C430N-L432F-L434W-S436N-H461T-dG462-A463T-Y469H (protein)
chain: B1 chain with S286E, Y469H
B4: A33P-I283T-P284D-i284aP-N287P-S322T-N388M-E421V-C430N-L432F-L434W-S436N-C437F-H461T-G462R-i462aA-A463T (protein)
chain: B1 chain with A33P, S286E, C437F, G462R
B5: I283T-P284D-i284aP-N287P-S322T-N388M-E421V-C430N-L432F-L434W-S436N-C437F-H461T-dG462-A463T (protein)
chain: B1 chain with S286E, C437F
B6: I283T-P284D-i284aP-N287P-S322T-N388M-E421V-C430N-L432F-L434W-S436N-H461T-dG462-A463T-D468L (protein)
chain: B1 chain with S286E, D468L
B7: I283T-P284D-i284aP-N287P-S322T-N388M-E421V-C430N-L432F-L434W-S436N-H461T-dG462-A463T-Y469A (protein)
chain: B1 chain with S286E, Y469A
B8: I283T-P284D-i284aP-N287P-S322T-N388M-E421V-C430N-I431M-L432F-L434W-S436N-H461T-dG462-A463T (protein)
chain: B1 chain with S286E, I431M
B9: V272R-I283T-P284D-i284aP-N287P-S322T-N388M-E421V-C430N-L432F-L434W-S436N-C437F-H461T-G462R-i462aA-A463T (protein)
chain: B1 chain with V272R, S286E, C437F, G462R
B10: V272R-I283T-P284D-i284aP-N287P-S322T-N388M-E421V-C430N-L432F-L434W-S436N-G448E-H461T-G462R-i462aA-A463T (protein)
chain: B1 chain with V272R, S286E, G448E, G462R
B11: V272I-I283T-P284D-i284aP-N287P-S322T-N388M-E421V-C430N-L432F-L434W-S436N-H461T-dG462-A463T (protein)
chain: B1 chain with V272I, S286E
B12: V272R-I283T-P284D-i284aP-N287P-S322T-N388M-E421V-C430N-L432F-L434W-S436N-C437F-G448E-H461T-G462R-i462aA-A463T (protein)
chain: B1 chain with V272R, S286E, C437F, G448E, G462R
B13: I283T-P284D-i284aP-N287P-S322T-H384S-N388M-E421V-C430N-L432F-L434W-S436N-C437F-H461T-G462R-i462aA-A463T (protein)
chain: B1 chain with S286E, H384S, C437F, G462R
B14: I283T-P284D-i284aP-N287P-S322T-N388M-E421V-C430N-L432F-L434W-S436N-G448V-H461T-dG462-A463T (protein)
chain: B1 chain with S286E, G448V
B15: I283T-P284D-i284aP-N287P-S322T-N388M-E421V-C430N-L432F-L434W-S436N-G448C-H461T-dG462-A463T (protein)
chain: B1 chain with S286E, G448C
B16: I283T-P284D-i284aP-N287P-S322T-N388M-E421V-C430N-L432F-L434W-S436N-C437G-H461T-dG462-A463T (protein)
chain: B1 chain with S286E, C437G
B17: I283T-P284D-i284aP-N287P-S322T-N388M-E421V-C430N-L432F-L434W-S436N-C437F-H461T-G462R-i462aA-A463T (protein)
chain: B1 chain with S286E, C437F, G462R
B18: V272R-I283T-P284D-i284aP-N287P-S322T-N388M-E421V-C430N-L432F-L434W-S436N-G448E-H461T-dG462-A463T (protein)
chain: B1 chain with V272R, S286E, G448E
B19: V272L-I283T-P284D-i284aP-N287P-S322T-N388M-E421V-C430N-L432F-L434W-S436N-H461T-dG462-A463T (protein)
chain: B1 chain with V272L, S286E
B20: V272I-I283T-P284D-i284aP-N287P-S322T-N388M-E421V-C430N-L432F-L434W-S436N-C437F-H461T-G462R-i462aA-A463T (protein)
chain: B1 chain with V272I, S286E, C437F, G462R
B21: I283T-P284D-i284aP-N287P-S322T-N388M-E421V-C430N-L432F-L434W-S436N-H461T-G462R-i462aA-A463T (protein)
chain: B1 chain with S286E, G462R
B22: V272R-I283T-P284D-i284aP-N287P-S322T-N388M-E421V-C430N-L432F-L434W-S436N-C437F-H461T-dG462-A463T (protein)
chain: B1 chain with V272R, S286E, C437F
B23: I283T-P284D-i284aP-N287P-S322T-N388M-E421V-C430N-L432F-L434W-S436N-G448E-H461T-dG462-A463T (protein)
chain: B1 chain with S286E, G448E
B24: V272R-I283T-P284D-i284aP-N287P-S322T-N388M-E421V-C430N-L432F-L434W-S436N-C437F-G448E-H461T-dG462-A463T (protein)
chain: B1 chain with V272R, S286E, C437F, G448E
B25: V272K-I283T-P284D-i284aP-N287P-S322T-N388M-E421V-C430N-L432F-L434W-S436N-C437F-H461T-G462R-i462aA-A463T (protein)
chain: B1 chain with V272K, S286E, C437F, G462R
B26: I283T-P284D-i284aP-N287P-S322T-N388M-E421V-C430N-L432F-L434W-S436N-G448E-H461T-G462R-i462aA-A463T (protein)
chain: B1 chain with S286E, G448E, G462R
B27: V272R-I283T-P284D-i284aP-N287P-S322T-N388M-E421V-C430N-L432F-L434W-S436N-H461T-G462R-i462aA-A463T (protein)
chain: B1 chain with V272R, S286E, G462R
B28: I283T-P284D-i284aP-N287P-S322T-N388M-E421V-C430N-L432F-L434W-S436N-C437F-G448E-H461T-G462R-i462aA-A463T (protein)
chain: B1 chain with S286E, C437F, G448E, G462R
B29: R15L-I283T-P284D-i284aP-N287P-S322T-K378M-N388M-E421V-C430N-L432F-L434W-S436N-H461T-dG462-A463T (protein)
chain: B1 chain with R15L, S286E, K378M
B30: V272R-I283T-P284D-i284aP-N287P-S322T-N388M-E421V-C430N-L432F-L434W-S436N-H461T-dG462-A463T (protein)
chain: B1 chain with V272R, S286E

Test system: 3-methylcrotonic acid
Assay type: biochemical, Yersinia frederiksenii
Parameters: key: “+” representing a low increase in activity; “++++” representing a high increase in activity

Molecule | Activity relative to WT
B1 | ++++
B2 | ++++
B3 | ++++
B4 | ++++
B5 | ++++
B6 | ++++
B7 | ++++
B8 | ++++
B9 | ++++
B10 | ++++
B11 | ++++
B12 | ++++
B13 | ++++
B14 | ++++
B15 | ++++
B16 | ++++
B17 | ++++
B18 | ++++
B19 | ++++
B20 | ++++
B21 | ++++
B22 | ++++
B23 | ++++
B24 | ++++
B25 | ++++
B26 | ++++
B27 | ++++
B28 | ++++
B29 | ++++
B30 | ++++
